Experimental data taken from the supplement of paper PMC10567573.

B1: TFE3 (parent)
chain: ELPNIKREISETEAKALLKERQKK
B2: SMG5 (parent)
chain: TNPDLIIVCAQSSQSLWNRLSVLL

Variants of: B1
Experiment: protein stability index of a GFP-peptide fusion (GPS, HEK-293T) (PSI 1-6); higher = more stable
Conditions: c terminus: a fixed tail appended
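Further: lentivirally expressed fusions sorted by FACS into six bins by GFP to DsRed ratio, PSI derived from sequencing read proportions per bin multiplied by bin number.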

Protein stability index, by site and new letter:
I5: F 4.05 | E 5.37 | V 3.94 | M 2.23 | Q 4.38 | G 3.46
R21: E 2.74 | D 2.88 | A 3.07 | H 2.63 | M 2.25 | C 2.43
E20: F 2.03 | Y 2.5 | R 3.29 | A 2.99 | M 2.59 | T 3.07 | S 2.67 | H 2.9
E11: G 3.45 | Y 3.16 | F 3.43 | I 3.05 | Q 3.29
K23: H 2.44 | W 2.36 | I 2.34 | D 2.56
L2: Y 4.18 | V 1.95 | W 3.96 | A 4.75 | F 4.29 | E 5.33
N4: P 3.76 | W 3.35 | K 2.78 | E 3.9 | C 2.32 | Y 3.29 | F 3.14 | I 3.85
L17: D 2.13 | V 3.14 | R 3.27 | C 3.09 | E 2.25 | P 3.56
R7: F 2.44 | C 2.97 | D 2.95
A14: I 2.46 | R 2.51 | S 2.22 | C 2.48 | G 3
E1: F 2.21 | Y 2.82 | V 3.57 | K 3.13 | A 3.19
S10: K 3 | H 2.82 | D 2.53 | P 4.98
E8: H 3.31 | F 3.52 | V 3.43 | A 2.49
K19: W 2.29 | P 2.29 | A 2.7
L18: D 2.07 | T 2.65 | S 2.77 | F 2.28 | Q 2.96
T12: C 2.51 | A 2.86 | W 3.31
P3: Y 3.04 | Q 2.98 | H 2.57 | I 1.34 | E 3.17 | V 2.32
K15: H 2.94 | V 2.02 | F 2.54
K6: A 2.95 | Y 2.65 | E 4.11
I9: Y 4.34 | V 3.64
A16: W 2.57 | H 4.11 | S 2.87 | M 2.63
K24: M 2.19 | D 2.91 | H 2.2 | Q 2.84 | R 2.15 | I 2.69 | L 2.53 | Y 2.69 | A 2.46
Q22: E 2 | K 2.35 | T 2.52
E13: Y 3.32 | W 2.56 | H 4.65 | D 4.12 | G 4.58 | I 3.33

Variants of: B2
Experiment: as above
Conditions: c terminus: a fixed tail appended

Protein stability index, by site and new letter:
L24: T 2.64 | V 3.05 | Y 1.85 | E 3.27 | M 3.19 | F 2.86 | G 2.84 | W 2.26 | P 1.38 | R 1.93 | D 2.8 | N 2.45 | A 2.73 | Q 1.92 | H 2.54 | S 1.38
S13: K 2.48 | F 1.49 | T 3.23 | Y 3.59 | H 1.53 | A 1.16 | Q 1.83 | N 2.7 | I 1.41 | P 3.21 | V 1.88 | E 1.57 | G 2.42 | C 2.21 | D 1.59 | M 2 | R 1.36 | L 2.97 | W 1.55
S15: K 3.11 | F 4.58 | G 2.9 | P 3.51 | E 2.58 | L 2.45 | R 1.25 | D 2.19 | T 1.44 | I 4.01 | Q 2.12 | C 3.21 | W 1.76 | M 3.28 | Y 2.49 | H 2.18 | A 2.62 | N 3.11
W17: Q 1.9 | F 3.58 | E 3 | V 2.79 | L 3.96 | T 2.58 | M 3.06 | C 4.36 | D 1.77 | K 2.05 | Y 2.88 | S 3.57 | I 2.47 | A 4.21 | P 2.82
S12: I 3.02 | L 3.9 | P 1.33 | R 3.06 | Y 4.01 | N 1.99 | F 3.37 | K 1.89 | H 3.49 | E 2.22 | G 2.1 | M 2.99
L23: E 2.75 | A 1.84 | R 2.83 | C 3.62 | I 2.27 | G 3.55 | W 2.85 | V 2.8 | S 2.68 | P 3.47 | N 3.27 | H 3.59 | K 1.99 | D 1.73 | F 2.33
S21: N 3.04 | I 3.08 | H 2.52 | A 3.16 | K 2.19 | G 3.14 | V 2.88 | W 2.75 | T 3.07 | L 2.07 | P 2.6 | C 2.21 | F 3.03 | M 1.58 | Y 3.25 | R 2 | E 3.57 | Q 2.87
Q14: A 3.98 | G 2.23 | L 1.6 | Y 3.2 | E 1.6 | P 2.09 | N 2.81 | S 2.68 | R 2.73 | M 2.22 | D 3.38 | K 3.23 | T 3.58 | V 3.03
L16: V 1.51 | N 2.81 | T 3.24 | W 1.93 | Q 2.55 | R 2.94 | A 2.1 | K 3.19 | M 3.23 | I 2.02 | E 2.42 | D 3.33 | P 3.37 | F 3.11 | S 2.53 | Y 2.81 | C 2.91 | H 3.7
V22: H 1.84 | W 1.24 | N 1.58 | A 2 | L 3.21 | I 4.58 | C 3.03 | M 2.98 | K 2.17 | G 1.81 | R 2.23 | E 1.91 | Y 1.91 | F 2.52 | T 2.99 | P 2.62 | S 2.36 | Q 1.65 | D 2.03
R19: F 1.84 | I 1.75 | H 2.54 | Q 2.95 | E 3.19 | Y 1.41 | K 2.5 | N 5.11 | T 3.21 | V 1.86 | M 2.1 | P 3.09 | D 3.35 | C 2.09 | W 2.23 | A 1.74 | S 2.06 | G 3.61 | L 1.57
L20: I 2.41 | S 2.19 | H 1.7 | K 2.77 | Y 2.11 | G 2.45 | Q 2.08 | M 2.24 | F 1.81 | T 2.02 | P 2.92 | N 3.27 | E 3.06 | D 1.83 | A 2.15 | W 3.72 | V 1.7 | C 2.88
N18: K 2 | G 2.69 | D 2.97 | E 1.56 | V 1.91 | P 3.09 | C 2.27 | R 1.49 | T 2.56 | I 2.43 | H 2.56 | W 1.92 | L 5.57 | Q 2.4 | Y 3.31 | A 3.11
